Assay [1] concerns the target T1, reconstituted holoenzyme from HK-STAAU_R12 and S. aureus core enzyme (Staphylococcus aureus, UniProt P0A0J0).
T1 construct: made in house; S. aureus RN4220 transformed with pTMHB rpoA (core enzyme)
Description: In vitro transcription and TCA precipitation assay, 96-well. The class given is biochemical. The conditions noted are these: 10 μM, FIG. 8. An excerpt:
In order to convert this gel-based transcription assay to a 96-well high through put format, we used an in vitro transcription assay followed by a TCA precipitation step in order to separate radiolabeled nucleotides incorporated into nucleic acid from unincorporated label. Such format is convenient as it will allow rapid screening with a large collection of compounds. In this TCA precipitation assay, we reconstituted the holoenzyme from STAAU_R12 and S. aureus core enzyme instead of using the E. coli core enzyme with STAAU_R12.
The E. coli core enzyme (Epicentre) was used as a positive control for monitoring transcription efficiency. The set up of high throughput screening assay for STAAU_R12 is illustrated in FIG. 7. […] UTP (3000 Ci/mmole), 1 U of RNasin (Promega) and 40 ng of pTMSM template DNA (a pTM derivative vector). To investigate the in vitroeffectofG1ORF67 on STAAU_R12 mediated transcriptional activation, G1ORF67 and a negative control (10 μM) were added to the mixture and the reaction was incubated for 1 h at 37° C. in a 96-well PCR-plate (BD-Falcon™). […] After filtration, the wells were washed 3 times (225 μl per wash) with 10% TCA, 2 times (225 μl per wash) with 95% ethanol and then 75 μl of liquid scintillation cocktail was added and the plates were counted for 30 s on a Trilux™ Microbeta counter (Perkin Elmer-Packard).

Assay [2] has as its target SV40 large T antigen (pGADT7-LargeT) (SV40, UniProt P03070 86-708). Nature of the assay: yeast two-hybrid, AH109.
The target of assay [3] is T2, STAAU_R12 (Staphylococcus aureus, UniProt P0A0J0). Description: Yeast two-hybrid analysis. The class given is cell-based. Further details: expressed in transfected cells; host or cells: yeast strain AH109 (Clontech). Conditions: yeast AH109.
T2 sequence (P0A0J0 whole entry, the tested form may be a part): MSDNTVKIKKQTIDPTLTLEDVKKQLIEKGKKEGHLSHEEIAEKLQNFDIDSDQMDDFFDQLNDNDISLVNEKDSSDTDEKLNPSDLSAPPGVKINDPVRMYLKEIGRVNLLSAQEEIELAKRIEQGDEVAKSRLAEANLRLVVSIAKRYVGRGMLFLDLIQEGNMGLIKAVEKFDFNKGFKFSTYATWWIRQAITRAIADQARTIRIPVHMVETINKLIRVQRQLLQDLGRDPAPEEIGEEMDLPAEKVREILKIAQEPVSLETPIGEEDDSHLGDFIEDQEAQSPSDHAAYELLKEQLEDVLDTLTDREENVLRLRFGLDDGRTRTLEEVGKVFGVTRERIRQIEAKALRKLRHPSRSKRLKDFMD
Description: To validate the interaction between G1ORF67 and STAAU_R12, we first performed yeast two-hybrid analyses with full length and deletions within both STAAU_R12 and G1ORF67. The inserts were cloned into pGADT7™ and pGBK™, the yeast vectors for two hybrid system studies (Clontech Laboratories) as fusions with the Gal4 activation domain (for pGADT7™) as well as with the Gal4 DNA-binding domain (for pGBK™). pGADT7 and pGBK recombinant plasmids bearing different combinations of constructs were introduced into a yeast strain (AH109, Clontech Laboratories), previously engineered to contain chromosomally-integrated copies of E. coli lacZand the selectable HIS3 and ADE2 genes. […]
To define the minimal region of STAAU_R12 conferring an interaction with G1ORF67, six deletions of STAAU_R12 were cloned into pGADT7 and introduced into AH109 yeast cells with the pGBK vector containing the full length sequence of G1ORF67. The resulting co-transformants were analyzed for their ability to induce expression of reporter genes.
To define the minimal region of G1ORF67 conferring an interaction with STAAU_R12, six deletions of G1ORF67 were cloned into pGADT7 and introduced into AH109 yeast cells with the pGBK vector containing the full length sequence of STAAU_R12. The resulting co-transformants were analyzed for their ability to induce expression of reporter genes required for viability on selective medium.
The target of assay [4] is STAAU_R12 full length fused to the Gal4 activation domain (p[…]_R12) (Staphylococcus aureus, UniProt P0A0I8 1-368). Nature of the assay: yeast two-hybrid, AH109.
Sequence of STAAU_R12 full length fused to the Gal4 activation domain (p[…]_R12) (P0A0I8 whole entry, the tested form may be a part): as the sequence (P0A0J0 whole entry, the tested form may be a part) above
Assay [5] concerns the target T3, HK-STAAU_R12 (Staphylococcus aureus, UniProt P0A0I8 1-368).
T3 construct: not shown: N-terminal 6x histidine tag and heart muscle kinase (HMK) phosphorylation site of vector pH6K
Description: TR-FRET, 32 nM of both GB-G1ORF67 and HK-STAAU_R12. In general terms: In TR-FRET formats the signal depends on donor and acceptor labels being close together.

Assay [6] concerns the target T3, HK-STAAU_R12. Description: TR-FRET competition, untagged G1ORF67 against 32 nM GB-G1ORF67 on 32 nM HK-STAAU_R12.
Assay [7] deals with T2, STAAU_R12. Description: Far Western analysis with 32P-labeled HK-STAAU_R12 probe. Type of assay: binding. Further details: made in house; host or cells: E. coli BL21. The conditions noted are these: 100 ng to 2 μg immobilised protein, FIG. 4. The procedure: Radiolabeling of the proteins was done through the heart muscle phosphate acceptor site with the heart muscle kinase enzyme (HMK). The labeled probe was incubated with immobilized target protein, and the interaction was detected by exposure to X-ray film after extensive washes.
For radiolabeling with […], 10-15 μg of STAAU_R12 fused to 6× histidine and the HMK kinase acceptor domain (HK-STAAU_R12) were incubated with 50 units of the catalytic sub-unit of cAMP-dependent protein kinase (Heart Muscle Kinase; Sigma) in a total volume of 100 μl containing 20 mM Tris pH 7.5, 100 mM NaCl, 12 mM MgCl2, 1 mM DTT and 50 μCi of [γ^32P]-ATP (3000 Ci/mmole) (NEN/Mandel) for 30 min at room temperature. To remove free nucleotides, the protein was applied to a Sephadex-G50™ column and eluted with Z-buffer (25 mM Hepes pH 7.7, 12.5 mM MgCl2, 20% glycerol, 100 mM KCl & 1 mM DTT) and the incorporation of γ^32P-ATP was determined by counting in a liquid scintillation counter.
Increasing amounts (from 100 ng to 2 μg) of HB-G1ORF67 and as a negative control, 77ORF104 protein (2 μg) were used for Far-western analysis. Proteins were resolved by 15% SDS-PAGE and transferred onto a nitrocellulose membrane (Millipore). […]

T3 sequence (P0A0I8 whole entry): as the sequence (P0A0J0 whole entry, the tested form may be a part) above
T1 sequence (P0A0J0 whole entry): as the sequence (P0A0J0 whole entry, the tested form may be a part) above
Sequence of SV40 large T antigen (pGADT7-LargeT) (P03070 86-708 limits assumed): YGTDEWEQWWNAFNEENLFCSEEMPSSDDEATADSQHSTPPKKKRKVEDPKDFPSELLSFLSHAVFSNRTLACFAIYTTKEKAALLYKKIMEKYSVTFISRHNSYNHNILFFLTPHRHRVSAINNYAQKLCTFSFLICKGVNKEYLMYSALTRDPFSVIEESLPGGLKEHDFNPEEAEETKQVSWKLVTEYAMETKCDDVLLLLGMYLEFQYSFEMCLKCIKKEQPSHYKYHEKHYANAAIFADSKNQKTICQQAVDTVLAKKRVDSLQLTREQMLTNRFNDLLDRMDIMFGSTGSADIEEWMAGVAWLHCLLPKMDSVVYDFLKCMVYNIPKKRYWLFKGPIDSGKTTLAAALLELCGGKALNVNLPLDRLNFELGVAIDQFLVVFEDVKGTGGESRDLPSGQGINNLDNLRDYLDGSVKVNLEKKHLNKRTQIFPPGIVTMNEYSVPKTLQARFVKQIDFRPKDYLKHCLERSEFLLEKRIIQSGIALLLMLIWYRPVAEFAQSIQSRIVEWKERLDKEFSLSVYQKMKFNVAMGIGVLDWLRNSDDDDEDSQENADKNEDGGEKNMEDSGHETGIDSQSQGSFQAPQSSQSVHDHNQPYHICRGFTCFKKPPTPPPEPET

Consider “GST: glutathione-S-transferase protein used as a negative control [reference compound]”, for which the “inhibition of STAAU_R12 mediated transcriptional activation (TCA precipitation)” value in assay [1] was “did not show any inhibition”.

B1: G1ORF67 full length fused to the Gal4 DNA-binding domain (G1pGBKORF67) (other)
chain: MKLLSSIEQACDICRLKKLKCSKEKPKCAKCLKNNWECRYSPKTKRSPLTRAHLTEVESRLERLEQLFLLIFPREDLDMILKMDSLQDIKALLTGLFVQDNVNKDAVTDRLASVETDMPLTLRQHRISATSSSEESSNKGQRQLTVSMKLKILDKDNATLNVFHRNKEHKTIDNVPTANLVDWYPLSNAYEYKLSRNGEYLELKRLRSTLPSSYGLDDNNQDIIRDNNHRCKIGYWYNPAVRKDNLKIIEKAKQYGLPIITEEYDANTVEQGFRDIGVIFQSLKTIVVTRYLEGKTEEELRIFNMKSEESQLNEALKESDFSVDLTYSDLGQIYNMLLLMKKISK
For the molecule B1, the binding result in assay [2] is listed as “no binding”.

B2: G1ORF67—50—198: 149 amino acid fragment of G1ORF67, amino acids residues 50 to 198 (SEQ ID NO: 8) (protein)
chain: NGEYLELKRLRSTLPSSYGLDDNNQDIIRDNNHRCKIGYWYNPAVRKDNLKIIEKAKQYGLPIITEEYDANTVEQGFRDIGVIFQSLKTIVVTRYLEGKTEEELRIFNMKSEESQLNEALKESDFSVDLTYSDLGQIYNMLLLMKKISK
modifications: Bacteriophage G1
Consider B2, for which, in the assay with STAAU_R12 [3], the “interaction with full length STAAU_R12 (growth on SD THAL minus medium)” value is “found to interact”.

B3: LaminC (pGBKT7LaminC) (other)
chain: MKLLSSIEQACDICRLKKLKCSKEKPKCAKCLKNNWECRYSPKTKRSPLTRAHLTEVESRLERLEQLFLLIFPREDLDMILKMDSLQDIKALLTGLFVQDNVNKDAVTDRLASVETDMPLTLRQHRISATSSSEESSNKGQRQLTVSSEEVVSREVSGIKAAYEAELGDARKTLDSVAKERARLQLELSKVREEFKELKARNTKKEGDLIAAQARLKDLEALLNSKEAALSTALSEKRTLEGELHDLRGQVAKLEAALGEAKKQLQDEMLRRVDAENRLQTMKEELDFQKNIYSEELRETKRRHETRLVEID
Take B3: the binding result in assay [4] is reported as “no binding”.

B4: GB-G1ORF67 (other)
chain: MKLKILDKDNATLNVFHRNKEHKTIDNVPTANLVDWYPLSNAYEYKLSRNGEYLELKRLRSTLPSSYGLDDNNQDIIRDNNHRCKIGYWYNPAVRKDNLKIIEKAKQYGLPIITEEYDANTVEQGFRDIGVIFQSLKTIVVTRYLEGKTEEELRIFNMKSEESQLNEALKESDFSVDLTYSDLGQIYNMLLLMKKISK
notes: also called GST-Bio fusion of G1ORF67; GST-tagged G1ORF67
For the molecule B4, the TR-FRET signal-to-background with HK-STAAU_R12 [5] is 30 ratio (to 1).

B5: untagged G1ORF67 (other)
chain: MKLKILDKDNATLNVFHRNKEHKTIDNVPTANLVDWYPLSNAYEYKLSRNGEYLELKRLRSTLPSSYGLDDNNQDIIRDNNHRCKIGYWYNPAVRKDNLKIIEKAKQYGLPIITEEYDANTVEQGFRDIGVIFQSLKTIVVTRYLEGKTEEELRIFNMKSEESQLNEALKESDFSVDLTYSDLGQIYNMLLLMKKISK
notes: also called G1ORF67 with GST portion removed by PreScission protease; not shown: the bioti
What is called IC50 is the concentration that inhibits the measured activity by half. A high value points to weaker potency. As for B5, the IC50 with HK-STAAU_R12 [6] was ~30 nM.

B6: HB-G1ORF67: G1ORF67 fused N-terminally to 6× Histidine residues and a biotin acceptor domain, purified from E. coli (protein)
chain: MKLKILDKDNATLNVFHRNKEHKTIDNVPTANLVDWYPLSNAYEYKLSRNGEYLELKRLRSTLPSSYGLDDNNQDIIRDNNHRCKIGYWYNPAVRKDNLKIIEKAKQYGLPIITEEYDANTVEQGFRDIGVIFQSLKTIVVTRYLEGKTEEELRIFNMKSEESQLNEALKESDFSVDLTYSDLGQIYNMLLLMKKISK
modifications: left off: small tags and cut ends
notes: G1ORF67 fused N-terminally to 6× Histidine residues and a biotin acceptor domain, purified from E. coli
As for B6, the “interaction with labeled STAAU_R12 probe” value in the assay with STAAU_R12 [7] is recorded as “directly interacts with STAAU_R12 in a dose-dependent manner”.

(Values after patent US20040157314A1, “Inhibitors of Staphylococcus aureus primary sigma factor and uses thereof” (priority 2003, published 2004).)
